Data from the supplement of paper PMC6755084.

B1: minF1; the commonest letter at each place (parent)
chain: GAGACCGCAACTGAAAAGTTGTTATCAGAAATGGATGGGTTGAATTTCTGCACGTAGAAGCAAAAGGC

Variants of: B1
Assay: fraction ligated after 30 min (ligated reads / total reads); higher = more ligase activity
Conditions: with F1*subA RNA substrate (template-directed ligation), 42 °C
Summary of the method: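 Templates from an oligo pool encoding minimized ligase ribozyme variants were amplified by PCR, transcribed with T7, and purified on gels. Gel electrophoresis separated ligated from unligated RNAs, which were then reverse transcribed using barcoded primers and sequenced on a MiSeq, keeping core bases with quality ≥30. For each variant, fraction ligated equals ligated reads divided by total reads.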

Variant | fraction ligated
GAGACCGCAACTGAAAAGTTGTTCTCCGAAATGGATGGGTTGAATTTCTGCACGTAGAAGCAAAAGGC [A24C A27C] | 0.056
GAGACCGCAACTGAAAAGTTGTTCTCAGAAATGGCTGGGTTGAATTTCTGCACGTAGAAGCAAAAGGC [A24C A35C] | 0.00154
GAGACCGCAACTGAAAAGTTGTTCTCAGAAATGGTTGGGTTGAATTTCTGCACGTAGAAGCAAAAGGC [A24C A35T] | 0.00376
GAGACCGCAACTGAAAAGTTGTTCTCAGAAATGGGTGGGTTGAATTTCTGCACGTAGAAGCAAAAGGC [A24C A35G] | 0.00404
GAGACCGCAACTGAAAAGTTGTTCTCAGAAAAGGATGGGTTGAATTTCTGCACGTAGAAGCAAAAGGC [A24C T32A] | 0.00211
GAGACCGCAACTGAAAAGTTGTTCTCAGAAACGGATGGGTTGAATTTCTGCACGTAGAAGCAAAAGGC [A24C T32C] | 0.00194
GAGACCGCAACTGAAAAGTTGTTCTCAGAAAGGGATGGGTTGAATTTCTGCACGTAGAAGCAAAAGGC [A24C T32G] | 0.00553
GAGACCGCAACTGAAAAGTTGTTGTCCGAAATGGATGGGTTGAATTTCTGCACGTAGAAGCAAAAGGC [A24G A27C] | 0.254
GAGACCGCAACTGAAAAGTTGTTGTCGGAAATGGATGGGTTGAATTTCTGCACGTAGAAGCAAAAGGC [A24G A27G] | 0.0437
GAGACCGCAACTGAAAAGTTGTTGTCTGAAATGGATGGGTTGAATTTCTGCACGTAGAAGCAAAAGGC [A24G A27T] | 0.231
GAGACCGCAACTGAAAAGTTGTTCTCAGAAATGGACGGGTTGAATTTCTGCACGTAGAAGCAAAAGGC [A24C T36C] | 0.0109
GAGACCGCAACTGAAAAGTTGTTCTCAGAAATGGAAGGGTTGAATTTCTGCACGTAGAAGCAAAAGGC [A24C T36A] | 0.0726
GAGACCGCAACTGAAAAGTTGTTCTCAGAAATGGAGGGGTTGAATTTCTGCACGTAGAAGCAAAAGGC [A24C T36G] | 0.438
GAGACCGCAACTGAAAAGTTGTGATCAGAAATGTATGGGTTGAATTTCTGCACGTAGAAGCAAAAGGC [T23G G34T] | 0.00441
GAGACCGCAACTGAAAAGTTGTGATCAGAAATGAATGGGTTGAATTTCTGCACGTAGAAGCAAAAGGC [T23G G34A] | 0.0854
GAGACCGCAACTGAAAAGTTGTGATCAGAAATGCATGGGTTGAATTTCTGCACGTAGAAGCAAAAGGC [T23G G34C] | 0.00122
GAGACCGCAACTGAAAAGTTGTGACCAGAAATGGATGGGTTGAATTTCTGCACGTAGAAGCAAAAGGC [T23G T25C] | 0.153
GAGACCGCAACTGAAAAGTTGTGAGCAGAAATGGATGGGTTGAATTTCTGCACGTAGAAGCAAAAGGC [T23G T25G] | 0.193
GAGACCGCAACTGAAAAGTTGTGAACAGAAATGGATGGGTTGAATTTCTGCACGTAGAAGCAAAAGGC [T23G T25A] | 0.0923
GAGACCGCAACTGAAAAGTTGTGATCAGAAATGGATAGGTTGAATTTCTGCACGTAGAAGCAAAAGGC [T23G G37A] | 0.00471

Variant | fraction ligated
GAGACCGCAACTGAAAAGTTGTGATCAGAAATGGATTGGTTGAATTTCTGCACGTAGAAGCAAAAGGC [T23G G37T] | 0.00959
GAGACCGCAACTGAAAAGTTGTGATCAGAAATGGATCGGTTGAATTTCTGCACGTAGAAGCAAAAGGC [T23G G37C] | 0.00547
GAGACCGCAACTGAAAAGTTGTTCTCAGACATGGATGGGTTGAATTTCTGCACGTAGAAGCAAAAGGC [A24C A30C] | 0.034
GAGACCGCAACTGAAAAGTTGTTCTCAGATATGGATGGGTTGAATTTCTGCACGTAGAAGCAAAAGGC [A24C A30T] | 0.0451
GAGACCGCAACTGAAAAGTTGTTCTCAGAGATGGATGGGTTGAATTTCTGCACGTAGAAGCAAAAGGC [A24C A30G] | 0.0241
GAGACCGCAACTGAAAAGTTGTGATCAGAAACGGATGGGTTGAATTTCTGCACGTAGAAGCAAAAGGC [T23G T32C] | 0.00942
GAGACCGCAACTGAAAAGTTGTGATCAGAAAAGGATGGGTTGAATTTCTGCACGTAGAAGCAAAAGGC [T23G T32A] | 0.084
GAGACCGCAACTGAAAAGTTGTGATCAGAAAGGGATGGGTTGAATTTCTGCACGTAGAAGCAAAAGGC [T23G T32G] | 0.0266
GAGACCGCAACTGAAAAGTTGTTCTCAGAAATCGATGGGTTGAATTTCTGCACGTAGAAGCAAAAGGC [A24C G33C] | 0.00418
GAGACCGCAACTGAAAAGTTGTTCTCAGAAATAGATGGGTTGAATTTCTGCACGTAGAAGCAAAAGGC [A24C G33A] | 0.0216
GAGACCGCAACTGAAAAGTTGTTCTCAGAAATTGATGGGTTGAATTTCTGCACGTAGAAGCAAAAGGC [A24C G33T] | 0.0129
GAGACCGCAACTGAAAAGTTGTGATCACAAATGGATGGGTTGAATTTCTGCACGTAGAAGCAAAAGGC [T23G G28C] | 0.8
GAGACCGCAACTGAAAAGTTGTGATCATAAATGGATGGGTTGAATTTCTGCACGTAGAAGCAAAAGGC [T23G G28T] | 0.803
GAGACCGCAACTGAAAAGTTGTGATCAAAAATGGATGGGTTGAATTTCTGCACGTAGAAGCAAAAGGC [T23G G28A] | 0.798
GAGACCGCAACTGAAAAGTTGTTCTCAGAACTGGATGGGTTGAATTTCTGCACGTAGAAGCAAAAGGC [A24C A31C] | 0.0126
GAGACCGCAACTGAAAAGTTGTTCTCAGAAGTGGATGGGTTGAATTTCTGCACGTAGAAGCAAAAGGC [A24C A31G] | 0.0441
GAGACCGCAACTGAAAAGTTGTTCTCAGAATTGGATGGGTTGAATTTCTGCACGTAGAAGCAAAAGGC [A24C A31T] | 0.0211
GAGACCGCAACTGAAAAGTTGTGATCAGAAATGGAAGGGTTGAATTTCTGCACGTAGAAGCAAAAGGC [T23G T36A] | 0.0286
GAGACCGCAACTGAAAAGTTGTGATCAGAAATGGACGGGTTGAATTTCTGCACGTAGAAGCAAAAGGC [T23G T36C] | 0.0436
GAGACCGCAACTGAAAAGTTGTGATCAGAAATGGAGGGGTTGAATTTCTGCACGTAGAAGCAAAAGGC [T23G T36G] | 0.061
